From patent publication US20040213794

Tested on: myelin basic protein (MBP)

Substance	in gel kinase assay (MBP as substrate)
Mst1 (mammalian sterile 20-like kinase-1), full length 61 kD form, endogenous in neonatal rat cardiac myocytes	activation of the full length (61 kD) and cleaved (34 kD) forms of Mst1 after 6 hr Doxo stimulation of cardiac myocytes
Mst1, cleaved 34 kD form (amino-terminal half containing the N-terminal kinase domain), in neonatal rat cardiac myocytes	activation of the full length (61 kD) and cleaved (34 kD) forms of Mst1 after 6 hr Doxo stimulation of cardiac myocytes
